Laboratory results taken from patent US7820412.

System: MutS (MBP-MutS-H6 fusion) (Thermus aquaticus)
Test: pulldown
Conditions: MutS selectivity factor M estimated by model from consensus shuffling error rates; 20 mM Tris-HCl pH 7.8, 10 mM NaCl, 5 mM MgCl2, 1 mM DTT, 5% glycerol, room …

“re-hybridized GFPuv fragments (average 150 bp) containing synthesis-error mismatches” gave a binding signal (fold selectivity) of 2.2.
